According to PMC270082:

Key:
[1] = target: PcrG (residues 1-98) (P. aeruginosa strain CHA); experiment: native MS
[2] = target: PcrG (1-74) (P. aeruginosa strain CHA); experiment: SPR
[3] = target: PcrG (residues 1-98) (P. aeruginosa strain CHA); experiment: SPR

With “PcrV (from UniProt G3XD49 1-294) (natural protein)” the stoichiometry N [1] was 1, the Kd [2] was 15.6 nM and the koff [2] was 0.00491 s⁻¹. The kon [2] was 316000 M⁻¹ s⁻¹, the Kd [3] was 15.6 nM and the koff [3] was 0.00694 s⁻¹. It also gave a kon [3] of 445000 M⁻¹ s⁻¹.
